Series [1] concerns dipeptidyl peptidase 4 (DPP-4). Particulars: cited from earlier work. An excerpt: (§1) This truncated form is subsequently degraded by endopeptidases and presumably cleared via renal excretion. […] Consequently, DPP-4 resistant GLP-2 analogues with an extended half-life were developed.
Another series relates to rat GLP-2R. The settings on record: BHK fibroblasts stably transfected with the rat GLP-2R; cited from earlier work. An excerpt: GLP-2 exerts its effects largely through interaction with the GLP-2 receptor (GLP-2R), which belongs to the class B1 of the G protein-coupled receptors. […] This led to the hypothesis that GLP-2 acts indirectly through a complex network of indirect mediators that induce diverse signaling pathways, which remains poorly understood.

A further series concerns patients with SBS. Particulars: cited from earlier work.
Excerpt: as §1

In series [2] the test system is enteric neurons and glial cells. The settings on record: via the PI3K/Akt/mTOR pathway; cited from earlier work. An excerpt: (§2) GLP-2 regulates proliferative and cytoprotective pathways in the intestine. […] Additionally, it couples with the activation of the Ras/MAPK pathway and stimulates DNA synthesis.
The subject of a further series is intestinal epithelium. Particulars: rodents; cited from earlier work.
Excerpt: as §2

Another series deals with rat. Further details: method as in PMID 31577440. The settings on record: head-to-head preclinical study; cited from earlier work.
On the set-up of series [3]: method as in PMID 35933503. Particulars: general statement; cited from earlier work. An excerpt: The diverse functions of GLP-2 highlight its significance in maintaining intestinal health and physiology. As a naturally occurring gut hormone, GLP-2 not only promotes nutrient absorption by decreasing intestinal motility and permeability, but also plays a pivotal role in stimulating intestinal epithelial cell growth and function. This multifaceted action of GLP-2 is crucial for the maintenance of the intestinal barrier, which is essential for preventing the translocation of harmful bacteria and toxins into the bloodstream.

Series [4] deals with T1, human GLP-2R (Homo sapiens, UniProt O95838).
T1 construct: The full-length cDNA of human GLP-2R was synthesized, cloned, and inserted into the pLU.cmv.Zeo vector; expressed in transfected cells
T1 sequence (O95838 1-553): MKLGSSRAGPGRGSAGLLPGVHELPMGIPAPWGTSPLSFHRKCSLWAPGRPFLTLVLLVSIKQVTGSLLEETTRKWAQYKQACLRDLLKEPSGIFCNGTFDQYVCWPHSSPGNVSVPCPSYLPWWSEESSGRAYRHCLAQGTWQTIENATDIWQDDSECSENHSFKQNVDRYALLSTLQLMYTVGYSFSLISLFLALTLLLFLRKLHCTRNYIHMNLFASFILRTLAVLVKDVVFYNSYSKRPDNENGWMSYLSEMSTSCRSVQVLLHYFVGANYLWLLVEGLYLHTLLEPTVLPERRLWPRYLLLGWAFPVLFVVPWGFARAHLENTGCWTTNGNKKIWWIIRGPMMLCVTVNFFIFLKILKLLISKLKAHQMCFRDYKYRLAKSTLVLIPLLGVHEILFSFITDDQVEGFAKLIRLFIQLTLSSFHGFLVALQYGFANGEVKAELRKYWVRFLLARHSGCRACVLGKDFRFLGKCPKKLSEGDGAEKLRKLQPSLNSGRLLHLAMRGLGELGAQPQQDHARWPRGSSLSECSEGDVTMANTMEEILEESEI
Kind of series: Cell-based reporter gene assay (RGA), HEK293-GLP-2R-Luc, CRE-luciferase. The settings on record: for dose-response curve in RGA / concentration–response curve in RGA (specificity): diluted to 2.665 µmol/L and further 7-fold for 10 concentration points, HEK293-GLP-2R-Luc cells; for Mean potency: mean of 8 tests, two analysts. The method, then: To generate a HEK293 cell line stably expressing CRE-driven luciferase and GLP2R, the CRE-miniP.Luc virus-containing cell supernatants were diluted in DMEM in the presence of 8 µg/mL polybrene before being added to HEK293 cells. To obtain a stable cell pool, the medium was replaced 48 h after incubation, with fresh culture medium containing 3 µg/mL puromycin. After about 3 weeks selection, the cell pool was then further infected with pLU.cmv-GLP2R.Zeo virus and selected with 200 µg/mL Zeocin and 3 µg/mL puromycin. […] The expression of GLP-2R was examined using flow cytometry. After that, the positive clones were routinely maintained in selective medium.
Cell-based RGA has been described previously. Briefly, 50 microliters of HEK293-GLP-2R-Luc cells were seeded into a 96-well white plate at a density of 4 × 10^4 cells/well. The cells were then incubated at 37 °C with 5% CO2 overnight (16 to 24 h). […] After 5 h of incubation, 100 µL of britelite plus reporter Gene Assay reagent were added to each well and mixed thoroughly under subdued light conditions for 5 min. The RLU signal was then determined with a SpectraMax M5e multimode plate reader (Molecular Devices, San Jose, CA, USA).
The RGA was validated as described previously. […] Samples of each potency level were tested by two analysts 8 times in total. […] The response of HEK293-GLP2R-Luc cells to these samples were determined as illustrated in 4.6.
The lower/upper asymptote was determined by the ratio of the top asymptote to the bottom asymptote when RGA best fit the 4PL model. The correlation coefficient (R^2), deviations from parallelism, and the regression in the 4PL model were estimated using SoftMax® Pro 7.1 software (Molecular Devices, San Jose, CA, USA). Specifically, a linear regression with an R^2 value no less than 0.98 was considered to have a very good fit. Additionally, a p-value below 0.01 was regarded as statistically significant. […] All the dose-response curves were plotted using GraphPad Prism® software 8.0.2 (GraphPad, Boston, MA, USA).

In another series the test system is intestinal cells. Details: method as in PMID 32060615. The settings on record: cited from earlier work.
Series [5] can be described thus: Appearance of teduglutide drug substance solution after storage at 37 °C. Particulars: after incubation for 12 or 14 days at 37 °C. Format: physicochemical.
Series [6] can be described thus: Teduglutide content by HPLC after storage at 37 °C. The settings on record: XBridge Peptide BEH C18, 214 nm, peak area ratio to non-treated DS. The format is physicochemical. Here is the method: The bioactivities of the treated and non-treated DS were then measured by the RGA. The teduglutide contents were analyzed by HPLC. An XBridge Peptide BEH C18 column (300 A, 5 μm, 4.6 mm × 250 mm) purchased from Waters (Milford, MA, USA) was used with a flow rate of 1.0 mL/min and was detected at 214 nm. The mobile phase was aqueous solution containing 0.1% trifluoroacetic acid and acetonitrile containing 0.1% trifluoroacetic acid. A total of 50 μL DS samples were injected into the column.

Series [7] addresses T1, human GLP-2R. In words: Cell-based reporter gene assay (RGA), HEK293-GLP-2R-Luc, CRE-luciferase. The settings on record: incubation time 5 h and 6 h, compared with 4 h; 96-well plate. A general note: Reporter assays use an easily measured gene product as a stand-in for the process of interest.

Square brackets hold non-standard residues; d marks the D form. Ends that are not written are not given here. Nle = CCCC[C@H](N)C(=O)O

Results on nine substances are retold here after paper PMC12073449, “Development of a Mechanism of Action-Reflective Cell-Based Reporter Gene Assay for Measuring Bioactivities of Therapeutic Glucagon-like Peptide-2 Analogues” (Molecules, 2025).

Turning to “GLP-2 (3–33): truncated and inactive GLP-2 formed by DPP-4 (DGSFSDEMNTILDNLAARDFINWLIQTKITD; Glucagon-like peptide 2; UniProt P01275 148-178, looked up, fragment)”, in series [1] (DPP-4 cleavage product), the “activity of truncated GLP-2” value was “inactive”.
For the substance Glucagon-like peptide-2 [GLP-2], in the series on rat GLP-2R, the cAMP accumulation entry is on record as “dose-dependent cAMP accumulation”. The “intestinal absorption, growth and transit in SBS” value in the series on patients with SBS (SBS) is “increase intestinal absorption by promoting intestinal growth and delays accelerated gastric emptying, gastrointestinal transit, and hypersecretions”. Besides, the “inactivation by DPP-4” value in series [1] (excision of the two N-terminal amino acids) is given as “rapid inactivation”. Besides, the neuronal differentiation entry in [2] was “stimulate neuronal differentiation”. Also, in the series with intestinal epithelium, the “growth of the intestinal epithelium” value is “enhances the growth of the intestinal epithelium”.
Consider “HGDGSFSDE[Nle][dF]TILDLLAARDFINWLIQTKITD-NH2 [apraglutide, GLP-2 analogue under development for SBS, synthesized by GenScript]”, for which, in the series on rat, the “half-life compared to teduglutide and glepaglutide” value was “longer half-life”; the “intestinotrophic effect compared to teduglutide and glepaglutide” value was “greater intestinotrophic effect”. Further, in series [3], the bioactivity result is “enhanced bioactivities” and the half-life entry is listed as “extended half-lives”. The “dependence on PN support” value in the series with patients with SBS (Phase II clinical trials, SBS) is on record as “significant reduction in patients’ dependence on PN support”. Moreover, at human GLP-2R [4], the “dose-response curve in RGA” value is listed as “induced sigmoid curves similar to those induced by teduglutide”.
On to “HGEGSFSSELSTILDALAARDFINWLIATKITDKKKKKK [elsiglutide, GLP-2 analogue under development, synthesized by GenScript]”, for which, in series [3], the bioactivity entry is “enhanced bioactivities” and the half-life result was “extended half-lives”. Also, the “dose-response curve in RGA” value at human GLP-2R [4] is recorded as “induced sigmoid curves similar to those induced by teduglutide”. Further, the “cell proliferation and intestinal cell apoptosis” value in the series on intestinal cells is “increase cell proliferation and reduce intestinal cell apoptosis”.
On to “His-Gly-Asp-Gly-Ser-Phe-Ser-Asp-Glu-Met-Asn-Thr-Ile-Leu-Asp-Asn-Leu-Ala-Ala-Arg-Asp-Phe-Ile-Asn-Trp-Leu-Ile-Gln-Thr-Lys-Ile-Thr-Asp [teduglutide, [Gly2] hGLP-2 (1–33), first and only GLP-2 analogue approved for medical treatment of short bowel syndrome]”, for which the “precipitation of DS solution” value in series [5] was “develops a clear colloidal precipitate”. In [3], the bioactivity entry is given as “enhanced bioactivities”. Also, the half-life entry in series [3] is reported as “extended half-lives”. Further, in the series on patients with SBS (SBS), the “intestinal absorption, growth and transit in SBS” value is “increase intestinal absorption by promoting intestinal growth and delays accelerated gastric emptying, gastrointestinal transit, and hypersecretions”. The “PN requirements and intestinal function” value in the series on patients with SBS (patients with SBS, daily treatment) is “significant reduction in PN requirements and an improvement in intestinal function”. Moreover, the teduglutide content in series [6] (end of decline with incubation at 37 °C) is 81.6%; in series [6] (start of decline, 37 °C) it was 99.9%. The “drug response vs incubation time” value in the series with human GLP-2R [7] is “stronger response (higher upper asymptote)”. In addition, in the series with human GLP-2R [4] (clones D5, D9, E11, F2, G11), the “response of five clones” value is “high response”. The “Mean Ln potency” value with human GLP-2R [4] (expected 50%) is given as −0.659; in the series with human GLP-2R [4] (expected 71%) it was −0.343; in the series with human GLP-2R [4] (expected 100%), 0.005; with human GLP-2R [4] (expected 141%) it was 0.372; with human GLP-2R [4] (expected 200%), 0.757. The Mean potency is 0.518 with human GLP-2R [4] (expected 50%); 0.711 in the series with human GLP-2R [4] (expected 71%); 1.007 with human GLP-2R [4] (expected 100%); 1.453 in the series with human GLP-2R [4] (expected 141%); 2.140 in the series with human GLP-2R [4] (expected 200%).
In the case of IL-4: 200-04, Thermo Fisher Scientific, the “concentration–response curve in RGA (specificity)” value with human GLP-2R [4] was “no dose–dependent response curve was induced”.
Same read-out and setting: in the case of IL-6: 200-06, Thermo Fisher Scientific it was “no dose–dependent response curve was induced”.
In the case of glucagon-like peptide-1 [GLP-1], the “concentration–response curve in RGA (specificity)” value in the series with human GLP-2R [4] is “unsuccessfully induced”.
On the same count and under the same terms, as for “glucose-dependent insulinotropic peptide [GIP]”, the entry is “unsuccessfully induced”.
